Measured values reported in publication PMC8692609, “Native mass spectrometry identifies the HybG chaperone as carrier of the Fe(CN)2CO group during maturation of E. coli [NiFe]-hydrogenase 2” (Scientific Reports, 2021).

B1: N-terminally His-tagged pre-HybC (natural protein, E. coli, UniProt P0ACE0 1-567, looked up)
chain: MSQRITIDPVTRIEGHLRIDCEIENGVVSKAWASGTMWRGMEEIVKNRDPRDAWMIVQRICGVCTTTHALSSVRAAESALNIDVPVNAQYIRNIILAAHTTHDHIVHFYQLSALDWVDITSALQADPTKASEMLKGVSTWHLNSPEEFTKVQNKIKDLVASGQLGIFANGYWGHPAMKLPPEVNLIAVAHYLQALECQRDANRVVALLGGKTPHIQNLAVGGVANPINLDGLGVLNLERLMYIKSFIDKLSDFVEQVYKVDTAVIAAFYPEWLTRGKGAVNYLSVPEFPTDSKNGSFLFPGGYIENADLSSYRPITSHSDEYLIKGIQESAKHSWYKDEAPQAPWEGTTIPAYDGWSDDGKYSWVKSPTFYGKTVEVGPLANMLVKLAAGRESTQNKLNEIVAIYQKLTGNTLEVAQLHSTLGRIIGRTVHCCELQDILQNQYSALITNIGKGDHTTFVKPNIPATGEFKGVGFLEAPRGMLSHWMVIKDGIISNYQAVVPSTWNSGPRNFNDDVGPYEQSLVGTPVADPNKPLEVVRTIHSFDPCMACAVHVVDADGNEVVSVKVL
notes: HybC, large (catalytic) subunit of hydrogenase 2 of Escherichia coli, as the immature precursor that still has the C-terminal peptide removed on maturation; also called apo-form of the hydrogenase 2 catalytic subunit; hydrogenase 2 large-subunit precursor; source: E. coli (plasmid pCAN-hybC_(stop)), purified on cobalt-charged TALON Superflow agarose; not shown: His tag, N-terminal, kept
B2: StrepII-tagged HybG (natural protein, E. coli, UniProt P0AAM7 1-82, looked up)
chain: MCIGVPGQVLAVGEDIHQLAQVEVCGIKRDVNIALICEGNPADLLGQWVLVHVGFAMSIIDEDEAKATLDALRQMDYDITSA
modifications: populations with a +26 Da modification on the N-terminal cysteinyl residue, a further +44 Da (CO2) modification, or the Fe(CN)2CO group (+136 Da; only on HybG dissociated from the native HybG-HypD complex)
notes: HybG, HypC-family hydrogenase maturation chaperone of Escherichia coli; the N-terminal residue of the protein is the cysteine that is formally amino acid position 2; Deconvoluted mass of the unmodified tagged protein is printed as 9615 Da; also called StrepII-HybG; native HybG; not shown: StrepII, C-terminal, kept
B3: HypD (natural protein, E. coli, UniProt P24192 1-373, looked up)
chain: MRFVDEYRAPEQVMQLIEHLRERASHLSYTAERPLRIMEVCGGHTHAIFKFGLDQLLPENVEFIHGPGCPVCVLPMGRIDTCVEIASHPEVIFCTFGDAMRVPGKQGSLLQAKARGADVRIVYSPMDALKLAQENPTRKVVFFGLGFETTMPTTAITLQQAKARDVQNFYFFCQHITLIPTLRSLLEQPDNGIDAFLAPGHVSMVIGTDAYNFIASDFHRPLVVAGFEPLDLLQGVVMLVQQKIAAHSKVENQYRRVVPDAGNLLAQQAIADVFCVNGDSEWRGLGVIESSGVHLTPDYQRFDAEAHFRPAPQQVCDDPRARCGEVLTGKCKPHQCPLFGNTCNPQTAFGALMVSSEGACAAWYQYRQQESEA
notes: HypD, iron-sulfur cluster-containing hydrogenase maturation protein of Escherichia coli; untagged; Carries a 4Fe-4S cluster; Untagged unless stated otherwise; also called HypD scaffold protein

Legend:
StrepII-tagged HybG [1] = biological target: B2; assay: native MS; purified N-terminally His-tagged pre-HybC supplemented with equimolar amounts of StrepII-HybG; 500 mM ammonium acetate pH 6.8; CID-MS/MS of the 16+ complex ion; conditions: both partners purified
[2] = biological target: the molecule itself; assay: as above
StrepII-tagged HybG [3] = biological target: B2; assay: native MS; isolated StrepII-HybG–HypD complex; 500 mM ammonium acetate pH 6.8, about 10 uM protein, nano-ESI Q-TOF, collision energy 40 V; CID-MS/MS of the 13+ ion at 80 V; conditions: both partners purified

stoichiometry N (StrepII-tagged HybG [1]) | stoichiometry N (StrepII-tagged HybG [3]) | Binder | stoichiometry N [2]
1 HybG:pre-HybC |  | B1 | 2
 |  | B2 | 2
 | 1 HybG:HypD | B3 | 
